Measured values reported in the DeepSol protein solubility set.

Test: soluble on expression in E. coli; label from the status in PepcDB or PDB records
For “MDFTIPLQLQSNTPIYLQIYEYIKAEIIQGTISVGTRLPSHRNLASQLNISRITVESAYQQLLAEGYAESKPKRGIFVANFDIDIIPNKKRNAAKKTNNLIEEKFEYDCSQGLIDQNAFPITNWKRALQESILIYENALFAKEDPQGEFALREHISTYLYHSRGVHSSPDQIVIGAGTQPLLWLLLQLLGPTKEYGIENPGFHRIHAIIKSCDRQIHPIPLDEKGIDISSLYNTNSNVAYVTPSHQFPLGIIMPLSRRLELLKWANDCNGYIIEDDYDGEFRYAGKPIPSLQSLDSNERVIYMGTFSKSFLPSLRMGYVVLPPHLLKTYQELHGIFKQTVATIQQLAFANFIQSGNWERHLNRSRTLYKRKHHTLVKSIMKEMGANVQILGEQSGLHIVLCVNNSMNENELIESAKKQSVKLYPLSPYDFVNDLRKESYVLLGFGSIPENKIETLATLLKDAWFPSCKETC”, the “soluble on expression in E. coli” value was “not soluble”. In the case of “SALTAALSVCPLPSSSFFFAGFLPHKKGRKSRLEFLASIDSTIVLYESPHRIGRLMEEVKEHFPDAQVFAAREITKMHEEYVTGTPDELANHFTGQKQRGEFVVVVHPPDKH”, the “soluble on expression in E. coli” value is reported as “not soluble”. For “MSLARSTPAIVILGQGSLDTARQIQRLYPDSLIHGLAERVEGADRVYHEFGATLRQLYQQDTPIIALCAAGIVIRTLAPLLLEKGAEPPVLAVAEDGSAVVPLLGGLGGVNVMAREIAAGLGVAAAITTSGELRFGTCLLNPPSGYALGDLELGKRFVSDLLGGESVRIEGAAPWLAAAKLPENDQARLTIRVGSAEREPVANELLIYPRSVLVACRGQRLAGEADSDLATHIRQALHQARIAVQSVACLLAADRDMADRALHQAAAQLGVPLRFLPAADSVAELAQQAVPQLLPPLKVGEDIAIAVASQPLDPEQIGRPRGRLAVIGLGPGAAELMVPAVKAELARANDILGYETYVRMAGPFRADQVMHCTDNREEMQRARHAFELAAQGRSVVVVSSGDPGVFAMAAAVIEALHESSDPAWHSVDLEILPGVSASLATAAQAGAPLGHDFCVLSLSDNLKPWDIIEKRLDLASQADLALAFYNPISRSRPWQLGRALEIVRQHRTPQTPVVLGRDIGRPGQTLRVITLGELTPEQVDMRTMVLVGSSTTCVFPRAGGGDWVYTPRWYGNKEGHHHHHH”, the “soluble on expression in E. coli” value was “soluble”. With “GMFTCKVNEHITIRLLEPKDAERLAELIIQNQQRLGKWLFFAENPSSADTYRETIIPDWRRQYADLNGIEAGLLYDGSLCGMISLHNLDQVNRKAEIGYWIAKEFEGKGIITAACRKLITYAFEELELNRVAICAAVGNEKSRAVPERIGFLEEGKARDGLYVNGMHHDLVYYSLLKREWEGEK” the “soluble on expression in E. coli” value was “soluble”. In the case of “MSLDSQVLEHVLPSHFAKYDKGGDEFYDLISAFHKSVRGSAPDAALYWYCRILAGGGDPLYVARRLLAIATEDIGNADPRAMQVALNAWDIFQRVGPSEGERAIAQATLYLASAPKSNAVYTAFNQAKHDAAHLPSYPVPEHLRNAPTQIMKELGFGAQYRYAHDEVGAFAAGENYFPEILKTKHYYQPTDRGLEKQIKDKLDYLASQNNQSENKRYDEGHHHHHH”, the “soluble on expression in E. coli” value is reported as “soluble”. For “MTTAGYYAAVDWGTSSFRLWIIGEDGAVLAERRSAEGMTTAAKTGFHTILDGHLAAVSAPAHLPIIICGMAGARQGWKEAGYIETPAALAEIAGRATAIPDVDRDIRILPGLAQRDRRHPDVMRGEETQLLGAAAHLGAGSHLVCMPGTHSKWVRLADDRVEGFSTFMTGELFDTIARHTILSHAVAEADTFAAGSAAFTDAVSRTRENPALATNLLFSVRAGQLLHGTAAADARAQLSGTLIGLEIAGALAGSGSVDGVCLVGSGGLGTLYRTALESQGLNVRAVDADEAVRAGLSAAARAIWPL”, the “soluble on expression in E. coli” value was “not soluble”. In the case of “MGSDKIHHHHHHMINREIAVKVQHVSKTFKLPTEATKSFRTTLVNRLRGIKGFTEQHVLKDINFDVYKGDFFGIVGRNGSGKSTLLKIISQIYVPEKGQVTVDGKMVSFIELGVGFNPELTGRENVYMNGAMLGFTKDEVDDMYNDIVDFAELHHFMNQKLKNYSSGMQVRLAFSVAIKAQGDVLILDEVLAVGDEAFQRKCNDYFMERKDSGKTTILVTHDMGAVKKYCNRAVLIEDGLVKAYGEPFDVANQYSVDNTETAEDAMNAEKISVSDIAKDLKVSLISNPRITPNDTITFEVSYEVLKDDFTYIAFSLTDIDRNIWVYNDNSLDYPTQGIGRKCISYQCQLSQLNDIKLKLEVTVRDKNGQMLLFSTAEQSPQIVIQRNDIDQDDLSALDSASGLYQRNGKWVFH”, the “soluble on expression in E. coli” value is reported as “not soluble”. In the case of “MKIEFFHDVICSFCFPMSDRMHEIQQEFPEIELIHRSFALGWSANDFETMFGSRAAVKEEVLTHWVHANQNDSKHRFNIEGMRKQRFDFPTSKNVLLAAKAAGYIGNQDTYWLLFDKLQEGLFVRSLNIEEPEVIEKLVKETTIDFALWKEAVASEAVWTAVQEDFALASAYGLQGVPALIINQKYLINGAVPKQQISQTIQKILAEEKQQQPLVSLTPSSEESASCEFKEGTWTCH”, the “soluble on expression in E. coli” value is reported as “not soluble”. In the case of “MAHHHHHHMHLIYLKILFFSLLLDTFISSHTNIPRINNVTPKNVAINISPVVPIPDVITLDYIKENLEQIRLIKDIIIKGKLKKLKVLKQKCKKNKKDKEIKNEIENLEREIMDTRKLCNNYIKNEIKEIKSLKDQIVKDKIEKDRWKKDLLIDYELKRLMYKPDIERLKQLNEEYKKEELRVAKLKDNMFKIYQFILYLIPNTIYYTIEFINNIPEVELSLPKFLKKKKKKKVNHFSHYGVPYMK”, the “soluble on expression in E. coli” value is reported as “soluble”. With “MMLSATQPLSEKLPAHGCRHVAIIMDGNGRWAKKQGKIRAFGHKAGAKSVRRAVSFAANNGIEALTLYAFSSENWNRPAQEVSALMELFVWALDSEVKSLHRHNVRLRIIGDTSRFNSRLQERIRKSEALTAGNTGLTLNIAANYGGRWDIVQGVRQLAEKVQQGNLQPDQIDEEMLNQHVCMHELAPVDLVIRTGGEHRISNFLLWQIAYAELYFTDVLWPDFDEQDFEGALNAFANRERRFGGTEPGDETA” the “soluble on expression in E. coli” value was “soluble”. With “AWQARGLGTARLQLVEFSAFVEPPDAVDSYQRHLFVHISQHCPSPGAPPLESVDVRQIYDKFPEKKGGLRELYDRGPPHAFFLVKFWADLNWGPSGEEAGAGGSISSGGFYGVSSQYESLEHMTLTCSSKVCSFGKQVVEKVETERAQLEDGRFVYRLLRSPMCEYLVNFLHKLRQLPERYMMNSVLENFTILQVVTNRDTQELLLCTAYVFEVSTSERGAQHHIYRLVRD” the “soluble on expression in E. coli” value was “soluble”. With “MDIVISGGTGLIGRAITEIQGNTYNVITRGPSRTDGNINLVNWNDLRKIRHCDVVINLAGYNIGSKRWNPKIKEEIIRSRIESTRRMVEFISSLDSKPEAFLSGSAIGYYGYGENTVFDENSPPGTGFLAELANAWEDEALKASRYTRTVILRTSNVLSSSGGFLARIMNSRSRRVYYFGDGDQPVSWIHIKDYVNAVKFLMENKDISGPVNMAAPSPVSFADLAHAIAREKGYKEMKIPEFIGKLILGSEMYRELMSGQRVAPKKLTGSGFSFQYPDLESAIKNLLEHHHHHH” the “soluble on expression in E. coli” value was “not soluble”. With “MNDLCVDLGYKSLNKFGEQLCGDMIQVVKDDDTTILVLADGLGSGVKANILSTLTSKIISTMIAAHMGIEECVNTIMSTLPVCKVRGIAYSTFTIIKITNNTYAEIIQYDNPLVILLRNGKKYDYPTQTKIISGKKIVESKIRLNCDDVFVVMSDGAIYAGVGQTLNYGWQRENIIEFIESHYDKSLSANALTSLLIDTCNNLYANMPGDDTTIAAIKIRKRQVVNLMFGPPQNPEDVHNMMSLFFAKQGRHIVCGGTTSTLAAKFLGKELETTIDYIDPRIPPIARIEGVDLVTEGVLTISRVLEYAKDYIGKNILYNEWHSKNDGASIIARMLFEEATDINFYVGKAINPAHQNPNLPIGFNIKMQLVEELSKILKQMGKTINLSYF” the “soluble on expression in E. coli” value was “not soluble”. In the case of “MGSDKIHHHHHHVKTRFFCQSCGQESPRWLGKCPGCGEWNTLVEEVVERAAAKRTPLGVKATPLTEIQIREEERVSSGSQELNRVLGGGIVPGSFVLLGGEPGIGKSTLLLQTAGLLAKGMDVLYISGEESEKQIKLRAERLGIKESRLHILTETRLEVVRDVALAMGPGLLIVDSIQTMVLEELQAAAGSVSQVREGAAFLMRLAKEEEIPIFLVGHVTKEGAIAGPRVLEHIVDTVLYFEGDRHHVYRLLRAVKNRFGSTNEIGVFEMHEDGLVEVPNPSKVFLGENSATAPGSSVAVIVEGSRPLLVEIQALVTPTTYGPPRRTATGIDYNRILMLLAVLDKKVGLHLGAQDVFINIAGGIRIDEPGVDLACIAAIASSLGERPLKRYALVGEVGLTGEVRGISQIEKRVKEAVKLGFEGCIIPRINVSAVKVPGNFTVIAVKTVEEAVQVMFEQ”, the “soluble on expression in E. coli” value is reported as “not soluble”. In the case of “SQSLGDRQRDNEKIDKMQQILRSVNAGIEDKGKVIARYTDVIKQELLINQDGTVAKTFEGEQLAQNEAFTLNTRNAFKSAANDPSISLPLYIAEIEGQKK”, the “soluble on expression in E. coli” value is reported as “not soluble”. For “MAPSTEDPDTVVEAQRRGSFSKKKNANGWNKVELVDQCAKQMGSEDKQPGGGDVKTENDPSKNGLGSATSNFIQSSVPPSHQTLSNPLQLSPPAEASVAQQSGASQVFPTFQAALGASSDELLQPNATSSSTSSSASTSSIVPVVKFTNQTAPNGSTVATSVGQNVRLTINGKRVGRPPGTFKRPQNNAANSSNSGNDSDMMGDHDLTCRWKSCNSSFQTLKALVDHVQESHVQSTEQEHHAWRCEWEGCDRNETFKALYMLIVHVRRHTGEKPNKCEYPGCGKEYSRLENLKTHRRTHTGEKPYKCEFADCEKAFSNASDRAKHQNRTHSNLKPYSCQIPQCTKSYTDPSSLRKHIKAVHGDDEYEKAKKSRPANYSNRRRPDHRLAPPTGAMSHPYLATPNSGASVVAHSSVHQQNFINMALAQHHHNAQRAQQLMAATGNVMPMMDPASAAAAAQAQAHHQAQAQMLQTHMMQQAQIQAAAQMQAQVQHQAAMQAHAMQQAQMVLQNNLLGAQSLLSPFSPLLPPSRAPNVMAMLQTPPTPTSVAPMFDIMTSRAPMAPVVSAPTAPAPLVPAPVPASPVFDELREQMREVEPLQQQQQQEPMDQDLQDIRVDGDSDDEDEEEPRTPSGALLLPRGGNNGDGGFGGSGSSRASSGSGTMELSAAPISQNGSRASGSGERGMRSFLIADILQLAADFQNERLLSDVLDLAIFDTRDVRSLHNIYQVYIRAHKAIPITRRPLDWNETHQLHNLYHDPRFNRAEHQDSPAIRDRDTRFWRTIAEANTMRQRQIEPVPLDDDDEGYFDEMVHRVQNGRLNEQFMEGFESDDDDGFEDEDDVPGLGIAVYRGRRRVRREALKQANLDIQEAETAGRNVGGFGDEEDRNNRGHDQDRSFLDHYYPPMVVVVETESPQIVRDQEMMRQFEEAKKNVETDEIKKRAEAMQFGTSSSHHHTKTLLIQRALFDKTSSVRRSLLQFITISVDQEELRQSCHATSAPQGAHVVHNVVDEFDSIMRAQEDSNNRILLSLDIPAPSAVTGVSGSITHADNSALQLQQEQPTSSFSSWFPEDDPIYALPPPPPPPAPPRRRRSADNKDDSENIPKKPRHQF”, the “soluble on expression in E. coli” value was “not soluble”. With “MKVTPINDYKDIHQDKETVLVLGYFDALHRGHKVLFDKARQIADEKQLEVAVFTFNESPQLTFQRYTDDLLLHITAPQRRCDLFKAYGTDQLYLTDFNSDFARTSSDDFITRYINRLKAQEIVVGFDYKFGHHRTDTDYLDRNFSGTVHVIEEQQSGGEKISSTRVRQLIREGNVKEANNLLGHEFSTRGIVVHGDARGRTIGFPTANLAPIDRTILPADGVYVADVVIDGKRYRSMTSLGKNVTFGGTELRLEANIFDFEGDIYGKTIEVFWLDYIRDMIKFNNIDELCDQLKADKKIAEKL” the “soluble on expression in E. coli” value was “not soluble”. With “MSLQYFKVRDEIRSMVSDSVDEIVDGVSKTTAEVINGRKSIAQYATSLIENNPEPDNVRTIISQPLIKNTFLLVGFGLEKDGSNINNDPSWNPGPTWDPRVRPWYKDAKNAGKLVITAPYADSASGEILVSVATPVKDSATGQFLGSIFYDVSLAELAELVNEVKLFDAGYVFIVSEDGTTIAHPKKEFNGKPMSEFLGESKINVDTHQVIINGKPYAVSFSDVEGEDWYVGVVIDEEIAYAALDELRRSEGHHHHHH” the “soluble on expression in E. coli” value was “soluble”.
